Assay results from patent US7005283B2, “Cytochrome P450 oxygenases and their uses” (Washington State University Research Foundation, priority 1999, dated 2006).

Columns and labels:
[1] = In vivo assay of yeast cells expressing recombinant oxygenases, radio-HPLC, substrate taxadiene; type: cell-based, Saccharomyces cerevisiae; conditions: assayed with Taxadiene; graded symbols, key not given
Text: Transformed yeast cells that fimctionally express a recombinant cytochrome P450 gene from Taxus (by CO-difference spectrum) can be tested in vivo for their ability to oxygenate (hydroxylate or epoxidize) taxoid substrates fed exogenously to the cells, thereby eliminating the need for microsome isolation for preliminary in vitro assays.
Accordingly, several clones of the available full-length clones were expressed in induced yeast host cells.
Isolated transformants for each full-length cytochrome P450 clone shown to express a functional enzyme by CO-difference spectrum (ten clones) were grown to stationary phase in 2 mL SGI medium at 30° C. and used to inoculate a 10-mL expression culture (in YPL medium). Approximately 8 hours after induction, cells were harvested by centrifugation (10 minutes at 1500 rpm), and the pellet was resuspended in 2 mL of fresh YPL medium.
To eliminate additional complication and uncertainty associated with microsome isolations for in vitro assays, 10^6 dpm of [20-^3H3]taxa-4(5),11(12)-diene (16 Ci/mol) or [20-^3H2]taxa-4(20),11(12)-diene-5-α-ol (4.0 Ci/mol), or other taxoid substrate were added directly to the cell suspension to assay conversion in vivo. After 12 hours of incubation at 30° C. with agitation (250 rpm), the mixture was treated for 15 minutes in a sonication bath and extracted 3 times with 2 mL diethyl ether to insure isolation of the biosynthetic products. These ether extracts, containing residual substrate and derived product(s), were concentrated to dryness, resuspended in 200 μL of CH3CN, and filtered. These samples were analyzed by radio-HPLC (Hefner et al., Chemistry and Biology 3:479–489, 1996) using a 4.6 mm i.d.×250 mm column of Econosil C18, 5 μ (Alltech, Deerfield, Ill.) with a gradient of CH3CN in H2O from 0% to 85% (10 minutes at 1 mL/minute), then to 100% CH3CN over 40 minutes.

[2] = type: binding, Saccharomyces cerevisiae
Text: CO-sensor of the 19 full-length cytochrome P450 clones from Taxus, thus far obtained, ten have yielded detectable CO-difference spectra (Table 2). […] These alternative expression systems for cytochrome P450 genes include the yeast Pichia pastoris, for which expression vectors and hosts are commercially available (Invitrogen, Carlsbad, Calif.), as well as established E. coli and baculovirus-insect cell systems for which general expression procedures have been described (Barnes, Methods Enzymol. 272:1–14, 1996;Gonzalez et al., Methods Enzymol. 206:93–99, 1991;Lee et al., Methods Enzymol. 272:86–98, 1996;and Lupien et al., Arch. Biochem. Biophys. 368:181–192, 1999).
Appropriate restriction sites were introduced by standard PCR methods (Innis et al., PCR Protocols: A Guide to Methods and Applications, Academic Press, San Diego, Calif., 1990) immediately upstream of the ATG start codon and downstream of the stop codon of all full-length cytochrome P450 clones. These modified amplicons were gel-purified, digested with the corresponding restriction enzymes, and then ligated into the expression vector pYeDP60. The vector/insert junctions were sequenced to ensure that no errors had been introduced by the PCR construction. Verified clones were transformed into yeast using the lithium acetate method (Ito et al., J. Bacteriol. 153:163–168, 1983). Isolated transformants were grown to stationary phase in SGI medium (Pompon et al., Methods Enzymol. 272:51–64, 1996), and used as inocula for a large-scale expression culture grown in YPL medium (Pompon et al., Methods Enzymol. 272:51–64, 1996). Approximately 24 hours after induction of cytochrome P450 expression with galactose (to 10% final concentration), a portion of the yeast cell culture was harvested by centrifugation. One-half of the culture was treated with carbon monoxide, and the cytochrome P450 CO-difference spectrum was recorded directly (using untreated cells as a control) by spectrophotometry (Omura and Sato, J. Biol. Chem. 239:2370–2378, 1964).

Row | Molecule | product identified HPLC peak [1] | CO diff. spec. [2]
1 | clone F72: Taxus cuspidata cytochrome P450 oxygenase, full-length clone, SEQ ID NO: 54 (nt) / 67 (aa) (protein, listed as Taxus cuspidata) MDVFYPLKSTVAKFNECFPAILFIVLSAVAGIVLPLLLFLRSKRRSSVGLPPGKLGYPFIGESLLFLKALRSNTVEQFLDERVKNFGNVFKTSLIGHPTVVLCGPAGNRLILANEEKLVQMSWPKSSMKLMGEKSITAKRGEGHMIIRSALQGFFSPGALQKYIGQMSKTIENHINEKWKGNDQVSVVALVGDLVFDISACLFFNINEKHERERLFELLEIIAVGVLAVPVDLPGFAYHRALQARSKLNAILSGLIEKRKMDLSSGLATSNQDLLSVFLTFKDDRGNPCSDEEILDNFSGLLHGSYDTTVSAMACVFKLLSSNPECYEKVVQEQLGILSNKLEGDEITWKDVKSMKYTWQVVQETLRLYPSIFGSFRQAITDIHYNGYIIPKGWKLLWTPYTTHPKEMYFSEPEKFLPSRFDQEGKLVAPYTFLPFGGGQRSCPGWEFSKMEILLSVHHFVKTFSTFTPVDPAEIIARDSLCPLPSNGFSVKLFPRSYSLHTGNQVKKI | No | +
2 | clone F7: Taxus cuspidata cytochrome P450 oxygenase, full-length clone, SEQ ID NO: 83 (nt) / 89 (aa) (protein, listed as Taxus cuspidata) MDSFTFVTIKMGKIWQVIQVEYILSLTLTAILLFFFRYRNKSSHKLPPGNLGFPFIGETIQFLRSLRSQTPEFFFDERVKKFGPVFKTSLIGAPTVIFCGAAGSRLVLSNEDKLVQMESPSSLKKLMGENSILYKREEEHRILRSALSRFLGPQALQTYIAKMSTEIERHINEKWKGKEEVKTLPLIRGLVFSIASSLFFDINDEPQQERLHHHLESLVAGSMAVRLDFPGTRFRKAVEARSKLDEALHSLIKSRRSDLLSGKASSNQDLLSVLLSFKDERGNPLRDEEILDNFSLILHASYDTTISPMVLTLKLLSSNPECYDKVVQEQFGILANKKEGEEISWKDLKAMKYTWQVVQETLRMFPPLFGSFRKAMVDINYDGYTIPKGWIVLWTTYSTHVKEEYFNEPGKFRPSRFEHDGRHVAPYTFLPFGGGLRTCPGWEFSKTEILLFIHHFVKTFGSYLPVDPNEKISADPFPPLPANGFSIKLFPRS | No | −
3 | clone F82: Taxus cuspidata cytochrome P450 oxygenase, full-length clone, SEQ ID NO: 81 (nt) / 87 (aa) (protein, listed as Taxus cuspidata) MDAFNVLMGPLAKFDNFMQLGSYSENLSVTITVTAIAVITLLLVLIRSKPQSCVNLPPGKLGYPFIGETLQLLQAFRSNRPQQFFDERQKKFGSVFKTSLIGDRTVVLCGPSGNRLLLSNENKLVEASWPSSSIKLIGEDSIAGKNGEKHRILRAAVNRYLGPGALQNYMAKMRSEIEHHMNEKWKGKEQVKVLPLVKENVFSIATSLFFGVNDDGERERLHDLLETALAGVFSIPLDFPGTNYRKALEARLKLDKVLSSLIERRRSDLRSGVASGNEDLLSVWLTFKDEEGNPLTDKEILDNFSTLLHASYDTTTSALTLTLKLMSSSTECYHKVVQEQLRIVSNKKEGEEISLKDLKDMKYTWQVVQETLRMFPPLFGSFRKAITDIHYDGYTIPKGWKVLWTTYSTHGREEYFNEPEKFMPSRFEEEGRHVAPYTFLPFGAGVRTCPGWEFSKTQILLFLHYFVKTFSGYIPLDPDEKVLGNPVPPLPANGFAIKLFPRPSFDQGSPME | No | −
